Biological target: I-Aα^d chain fused to the human IgG1 Fc knob (non-zippered KIH-based BDC2.5mi/IA^g7, α chain) (mouse | human)
Experiment: SDS stability on SDS-PAGE; 12% SDS-PAGE of the purified, co-expressed heterodimers; 0.83% SDS, left unboiled ('native') or boiled (100 °C for 5 min); fully denaturing with 20 mM β2-ME

- stoichiometry N: 1
Substance: BDC2.5mi peptide tethered to the I-Aβ^g7 chain fused to the human IgG1 Fc hole (non-zippered KIH-based BDC2.5mi/IA^g7, β chain) (Fc fusion)
